The source of these data is article PMC11237755.

What all share (conditions): LightShift Chemiluminescent EMSA kit (binding buffer, salt and pH not given), 20 min room temperature; 20 fmol probe, 6% 0.5x TBE gel (TtdV/TtdW); 50 fmol …
Data set [1] has as its system T1, His6-ArcA (unphosphorylated) (Salmonella enterica serovar Typhimurium IR715 (ATCC14028 NalR)), ORF:c309dbee.
T1 sequence: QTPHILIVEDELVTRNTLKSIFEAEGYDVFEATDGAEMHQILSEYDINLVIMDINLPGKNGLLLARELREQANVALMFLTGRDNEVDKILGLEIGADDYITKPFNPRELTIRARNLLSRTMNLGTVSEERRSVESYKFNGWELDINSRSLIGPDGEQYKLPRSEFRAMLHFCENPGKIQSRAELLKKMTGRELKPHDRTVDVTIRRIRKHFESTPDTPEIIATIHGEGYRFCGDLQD
The experiment in a line: EMSA. On the technique in general: Mobility shift assays separate free from complexed probe on a gel.

The test system of data set [2] is T2, His6-ArcA~P (Salmonella enterica serovar Typhimurium IR715 (ATCC14028 NalR)), ORF:c309dbee.
T2 sequence: T1 sequence
Briefly: EMSA.

The target in data set [3] is T3, TtdV-His6 (Salmonella enterica serovar Typhimurium IR715 (ATCC14028 NalR)) (UniProt Q8ZLP8).
T3 sequence: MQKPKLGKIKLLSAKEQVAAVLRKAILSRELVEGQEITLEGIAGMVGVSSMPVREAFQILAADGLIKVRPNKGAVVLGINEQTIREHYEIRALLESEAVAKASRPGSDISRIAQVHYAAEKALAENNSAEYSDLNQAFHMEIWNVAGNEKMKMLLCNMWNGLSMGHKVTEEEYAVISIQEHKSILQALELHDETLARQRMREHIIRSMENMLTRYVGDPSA
Briefly: EMSA.

Data set [4] deals with T2, His6-ArcA~P (Salmonella enterica serovar Typhimurium IR715 (ATCC14028 NalR)), ORF:c309dbee. The experiment in a line: competition.
Data set [5] concerns the target T4, TtdW-His6 (Salmonella enterica serovar Typhimurium IR715 (ATCC14028 NalR)) (UniProt Q8ZLP7).
T4 sequence: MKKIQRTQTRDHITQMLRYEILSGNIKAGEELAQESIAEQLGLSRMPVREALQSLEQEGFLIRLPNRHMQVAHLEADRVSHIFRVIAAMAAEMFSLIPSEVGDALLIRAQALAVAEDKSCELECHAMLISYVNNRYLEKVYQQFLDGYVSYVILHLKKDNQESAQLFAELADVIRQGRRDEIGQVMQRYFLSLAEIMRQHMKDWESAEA
The experiment in a line: competition.

Data set [6] concerns the target T4, TtdW-His6 (Salmonella enterica serovar Typhimurium IR715 (ATCC14028 NalR)). Briefly: EMSA.

“ACCGAAGAAGAGTATGCCGTGATTTCCATTCAGGAACATAAAAGTATTCTGCAAGCTCTTGAACTTCATGATGAAACATTGGCACGCCAGCGCATGCGCGAACACATTATTCGCTCAATGGAGAATATGCTGACCCGCTATGTTGGTGACCCTTCTGCCTGATCTTTTCGCCTGCGTGAGCATCGCAGGCGCTTCAACCAATTCTTCAATTCTATTAATCACGTCCAGTAACGATCTAACCACGATCTTGATGTAGC (double strand) [Probe 3]”: the binding result in data set [1] is “binds”; in data set [2], “binds”; in data set [3] it was “no binding”.
As for “CCTAACTCGGCGGAATACTCCGACCTGAATCAGGCATTTCATATGGAAATATGGAATGTTGCTGGCAACGAAAAAATGAAAATGTTGCTCTGTAATATGTGGAACGGCCTGTCGATGGGCCATAAGGTCACCGAAGAAGAGTATGCCGTGATTTCCATTCAGGAACATAAAAGTATTCTGCAAGCTCTTGAACTTCATGATGAAACATTGGCACGCCAGCGCATGCGCGAACACATTATTCGCTCAATGGAGAATATGCTGACCCGCTATGTTG (double strand) [Probe 2]”, the binding result is “binds” in data set [1], “binds” in data set [2] and “no binding” in data set [3].
Regarding “CGTATGCTGACCCGCTATGTTGGTGACCCTTCTGCCTGATCTTTTCGCCTGCGTGAGCATCGCAGGCGCTTCAACCAATTCTTCAATTCTATTAATCACGTCCAGTAACGATCTAACCACGATCTTGATGTAGATCCCACTCCTGCATCTTTCCTGAGAAACGATTTGACTTAGTTTTTGTATGGGAATAATTTCTCCCTGTCAACATTGGATACAATATCATATATCATTGATTGGATAATTATAAATATGGAACCCATTACCCTTACCTTATGTTTATTGGTGTTCGCCC (double strand) [Probe 4 unlabeled competitor]”, the binding entry in data set [4] and in data set [5] was “binds” each time.
In the case of “CGTATGCTGACCCGCTATGTTGGTGACCCTTCTGCCTGATCTTTTCGCCTGCGTGAGCATCGCAGGCGCTTCAACCAATTCTTCAATTCTATTAATCACGTCCAGTAACGATCTAACCACGATCTTGATGTAGATCCCACTCCTGCATCTTTCCTGAGAAACGATTTGACTTAGTTTTTGTATGGGAATAATTTCTCCCTGTCAACATTGGATACAATATCATATATCATTGATTGGATAATTATAAATATGGAACCCATTACCCTTACCTTATGTTTATTGGTGTTCGCCC (double strand) [Probe 4]”, the binding entry in data set [1], in data set [2] and in data set [6] was “binds” in each case.
With “GCCTTCTTCGGTGACCTTATGGCCCATCGACAGGCCGTTCCACATATTACAGAGCAACATTTTCATTTTTTCGTTGCCAGCAACATTCCATATTTCCATATGAAATGCCTGATTCAGGTCGGAGTATTCCGCCGAGTTATTTTCCGCGAGAGCCTTTTCAGCGGCATAATGCACCTGGGCTATCCGCGAGATATCGGAGCCAGGACGAGAAGCTTTAGCCACCGCCTCACTTTCTAACAGCGCGCGAATTTCATAGTGTTCACGGATGG (double strand) [Probe 1]”, the binding result is listed as “binds” in data set [1], “binds” in data set [2] and “no binding” in data set [3].
